In patent publication US7863432 (FORSCHUNGSVERBUND BERLIN E V, dated 2011):

Target: T1, RIIα-YFP fusion protein (regulatory subunit RIIα of human protein kinase A fused to yellow-fluorescent … (human, UniProt P13861 2-404))
T1 construct: whole, on cells; Expressed inside transfected HEK293 or CD8 cells (diffuse, cytosolic); also called regulatory RIIα subunit of PKA; not shown: yellow-fluorescent protein (YFP) encoded by vector pEYFP (BD Biosciences Clontech)
Experiment: FRET in two co-transfected HEK293 cells, time 0 min before peptide addition
Procedure: FRET measurements were performed 24-48 hours after transfection, using an epifluorescence microscope (Axiovert 200M, Carl Zeiss, Jena, Germany). The data were stored using the Openlab 2.25 software (Improvision, Coventry GB). Fluorescence was excited at a wavelength of 425 nm for CFP and 488 nm for YFP. […] Non-specific background fluorescence was determined in a region with no cells and subtracted.
This peptide inhibits the interaction between AKAP and regulatory PKA subunits in general (Klussmann et al., J. Biol. Chem. 274, 4934-4938, 1999; see schematic diagram in FIGS. 5A and B).

T1 sequence (P13861 2-404): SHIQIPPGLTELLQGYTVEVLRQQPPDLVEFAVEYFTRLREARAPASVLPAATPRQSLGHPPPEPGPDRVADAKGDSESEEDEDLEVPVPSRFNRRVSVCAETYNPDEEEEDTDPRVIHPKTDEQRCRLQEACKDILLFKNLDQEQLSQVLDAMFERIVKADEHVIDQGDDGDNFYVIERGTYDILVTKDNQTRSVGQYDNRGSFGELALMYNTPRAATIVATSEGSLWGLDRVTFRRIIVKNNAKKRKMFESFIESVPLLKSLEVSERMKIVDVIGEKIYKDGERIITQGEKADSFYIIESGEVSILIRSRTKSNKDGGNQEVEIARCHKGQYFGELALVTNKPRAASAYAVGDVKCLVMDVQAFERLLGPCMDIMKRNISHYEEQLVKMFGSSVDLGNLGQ

535/480 ratio (FRET signal) prior to addition of S-Ht31: ~1.3
B1: AKAP18δ-CFP fusion protein (other)
chain: MERPAAGEIDANKCDHLSRGEEGTGDLETSPVGSLADLPFAAVDIQDDCGLPDVPQGNVPQGNPKRSKENRGDRNDHVKKRKKAKKDYQPNYFLSIPITNKKITAGIKVLQNSILRQDNRLTKAMVGDGSFHITLLVMQLLNEDEVNIGTDALLELKPFVEEILEGKHLTLPFHGIGTFQGQVGFVKLADGDHVSALLEIAETAKRTFQEKGILAGESRTFKPHLTFMKLSKAPMLWKKGVRKIEPGLYEQFIDHRFGEEILYQIDLCSMLKKKQSNGYYHCESSIVIGEKDRKEPEDAELVRLSKRLVENAVLKAVQQYLEETQNKKQPGEGNSVKAEEGDRNGDGSDNNRK
notes: Expressed inside transfected HEK293 or CD8 cells (diffuse, cytosolic); also called AKAP186; AKAP188; not shown: cyan-fluorescent protein (CFP) encoded by vector pECFP (BD Biosciences Clontech)
